Values joined by “and” are separate entries in the source; they are usually repeats but may differ in a detail not shown here. Identical values can stand only once.
Settings: Dickeya chrysanthemi, reversible: yes, whole UniProt chain shown; for Tm / unfolding enthalpy (calorimetric) / unfolding enthalpy (van 't Hoff): Thermal, DSC; for denaturant m value / denaturant midpoint (higher = more stable) / unfolding free energy: 25 °C, GdnHCl
[1] = pH 5, CD, Sodium phosphate 0.1 M, sodium chloride 150 mM
[2] = pH 5, CD, Sodium phosphate buffer, NaCl
[3] = pH 5, Fluorescence, Sodium phosphate 0.1 M, sodium chloride 150 mM
[4] = pH 5, fluorescence, Sodium phosphate buffer, NaCl
[5] = pH 7, CD, Sodium phosphate 0.1 M, sodium chloride 150 mM
[6] = pH 7, CD, Sodium phosphate buffer, NaCl
[7] = pH 7, Fluorescence, Sodium phosphate 0.1 M, sodium chloride 150 mM

B1: Pectate lyase C wild type, P11073 (protein)
chain: MKSLITPITAGLLLALSQPLLAATDTGGYAATAGGNVTGAVSKTATSMQDIVNIIDAARLDANGKKVKGGAYPLVITYTGNEDSLINAAAANICGQWSKDPRGVEIKEFTKGITIIGANGSSANFGIWIKKSSDVVVQNMRIGYLPGGAKDGDMIRVDDSPNVWVDHNELFAANHECDGTPDNDTTFESAVDIKGASNTVTVSYNYIHGVKKVGLDGSSSSDTGRNITYHHNYYNDVNARLPLQRGGLVHAYNNLYTNITGSGLNVRQNGQALIENNWFEKAINPVTSRYDGKNFGTWVLKGNNITKPADFSTYSITWTADTKPYVNADSWTSTGTFPTVAYNYSPVSAQCVKDKLPGYAGVGKNLATLTSTACK
Tm (pH 4): 56.5 °C
unfolding enthalpy (calorimetric) (pH 4): 256 kcal/mol
unfolding enthalpy (van 't Hoff) (pH 4): 174 kcal/mol
denaturant m value [1]: 15.7 kcal/mol/M
denaturant midpoint (higher = more stable) [1]: 0.95 M
unfolding free energy [1]: 14.9 kcal/mol
denaturant m value [2]: 12.5 kcal/mol/M and 15.7 kcal/mol/M
denaturant midpoint (higher = more stable) [2]: 0.97 M
unfolding free energy [2]: 14.9 kcal/mol
denaturant m value [3]: 14.5 kcal/mol/M
denaturant midpoint (higher = more stable) [3]: 0.96 M
unfolding free energy [3]: 14 kcal/mol
denaturant m value [4]: 14.5 kcal/mol/M
denaturant midpoint (higher = more stable) [4]: 0.96 M
unfolding free energy [4]: 14 kcal/mol
Tm (pH 5): 59.8 °C
unfolding enthalpy (calorimetric) (pH 5): 270 kcal/mol
unfolding enthalpy (van 't Hoff) (pH 5): 181 kcal/mol
Tm (pH 6): 56.5 °C
unfolding enthalpy (calorimetric) (pH 6): 255 kcal/mol
unfolding enthalpy (van 't Hoff) (pH 6): 203 kcal/mol
denaturant m value [5]: 12.2 kcal/mol/M and 11.8 kcal/mol/M
denaturant midpoint (higher = more stable) [5]: 0.99 M and 0.98 M
unfolding free energy [5]: 12.1 kcal/mol and 11.6 kcal/mol
denaturant m value [6]: 12.2 kcal/mol/M and 11.8 kcal/mol/M
denaturant midpoint (higher = more stable) [6]: 0.99 M and 0.98 M
unfolding free energy [6]: 12.1 kcal/mol and 11.6 kcal/mol
denaturant m value [7]: 13 kcal/mol/M
denaturant midpoint (higher = more stable) [7]: 1 M
unfolding free energy [7]: 13 kcal/mol
Tm (pH 7): 51.2 °C
unfolding enthalpy (calorimetric) (pH 7): 240 kcal/mol
unfolding enthalpy (van 't Hoff) (pH 7): 219 kcal/mol
Tm (pH 8): 46.5 °C
unfolding enthalpy (calorimetric) (pH 8): 235 kcal/mol
unfolding enthalpy (van 't Hoff) (pH 8): 201 kcal/mol
